Results reported in US12630600B2 (MEDIMMUNE LIMITED, priority 2022, dated 2026).
Starred links: 1 amine or outer side, 2 acyl side, 3 side chain; linkers in the order of their positions; H or OH if unused. Non-standard residues stand in square brackets, D forms with d. Groups on a side chain read outwards from the residue. No end group written: not given here. *: point of attachment. C20 diacid = O=C(O)CCCCCCCCCCCCCCCCCCC(=O)*; C18 diacid = O=C(O)CCCCCCCCCCCCCCCCC(=O)*; γGlu = O=C(O)[C@H](CCC(=O)[*:2])N[*:1]; αMeF = C[C@](N)(Cc1ccccc1)C(=O)O; AEEA = NCCOCCOCC(=O)O; Aib = CC(C)(N)C(=O)O

B1: Peptide 2 (peptide)
peptide: HSQGS[αMeF]TSDVSK[αMeF]LDSK([AEEA-AEEA-γGlu-C20 diacid])AAQD[αMeF]VQWIANT-NH2
modifications: N-terminus assumed
SMILES: CC[C@H](C)[C@H](NC(=O)[C@H](Cc1c[nH]c2ccccc12)NC(=O)[C@H](CCC(N)=O)NC(=O)[C@@H](NC(=O)[C@](C)(Cc1ccccc1)NC(=O)[C@H](CC(=O)O)NC(=O)[C@H](CCC(N)=O)NC(=O)[C@H](C)NC(=O)[C@H](C)NC(=O)[C@H](CCCCNC(=O)COCCOCCNC(=O)COCCOCCNC(=O)CC[C@H](NC(=O)CCCCCCCCCCCCCCCCCCC(=O)O)C(=O)O)NC(=O)[C@H](CO)NC(=O)[C@H](CC(=O)O)NC(=O)[C@H](CC(C)C)NC(=O)[C@](C)(Cc1ccccc1)NC(=O)[C@H](CCCCN)NC(=O)[C@H](CO)NC(=O)[C@@H](NC(=O)[C@H](CC(=O)O)NC(=O)[C@H](CO)NC(=O)[C@@H](NC(=O)[C@](C)(Cc1ccccc1)NC(=O)[C@H](CO)NC(=O)CNC(=O)[C@H](CCC(N)=O)NC(=O)[C@H](CO)NC(=O)[C@@H](N)Cc1c[nH]cn1)[C@@H](C)O)C(C)C)C(C)C)C(=O)N[C@@H](C)C(=O)N[C@@H](CC(N)=O)C(=O)N[C@H](C(N)=O)[C@@H](C)O
B2: Peptide 29 (peptide)
peptide: H[Aib]QGTFTSDVSK[αMeF]LDSK([AEEA-AEEA-γGlu-C18 diacid])RA[Aib]DFVQWLL[Aib]T-OH
modifications: N-terminus assumed
SMILES: CC(C)C[C@H](NC(=O)[C@H](Cc1c[nH]c2ccccc12)NC(=O)[C@H](CCC(N)=O)NC(=O)[C@@H](NC(=O)[C@H](Cc1ccccc1)NC(=O)[C@H](CC(=O)O)NC(=O)C(C)(C)NC(=O)[C@H](C)NC(=O)[C@H](CCCNC(=N)N)NC(=O)[C@H](CCCCNC(=O)COCCOCCNC(=O)COCCOCCNC(=O)CC[C@H](NC(=O)CCCCCCCCCCCCCCCCC(=O)O)C(=O)O)NC(=O)[C@H](CO)NC(=O)[C@H](CC(=O)O)NC(=O)[C@H](CC(C)C)NC(=O)[C@](C)(Cc1ccccc1)NC(=O)[C@H](CCCCN)NC(=O)[C@H](CO)NC(=O)[C@@H](NC(=O)[C@H](CC(=O)O)NC(=O)[C@H](CO)NC(=O)[C@@H](NC(=O)[C@H](Cc1ccccc1)NC(=O)[C@@H](NC(=O)CNC(=O)[C@H](CCC(N)=O)NC(=O)C(C)(C)NC(=O)[C@@H](N)Cc1c[nH]cn1)[C@@H](C)O)[C@@H](C)O)C(C)C)C(C)C)C(=O)N[C@@H](CC(C)C)C(=O)NC(C)(C)C(=O)N[C@H](C(=O)O)[C@@H](C)O
B3: Peptide 42 (peptide)
peptide: H[Aib]QGTFTSDVSK[αMeF]LDSK([AEEA-AEEA-γGlu-C18 diacid])RAQDFVQ[Aib]LVAT-OH
modifications: N-terminus assumed
SMILES: CC(C)C[C@H](NC(=O)C(C)(C)NC(=O)[C@H](CCC(N)=O)NC(=O)[C@@H](NC(=O)[C@H](Cc1ccccc1)NC(=O)[C@H](CC(=O)O)NC(=O)[C@H](CCC(N)=O)NC(=O)[C@H](C)NC(=O)[C@H](CCCNC(=N)N)NC(=O)[C@H](CCCCNC(=O)COCCOCCNC(=O)COCCOCCNC(=O)CC[C@H](NC(=O)CCCCCCCCCCCCCCCCC(=O)O)C(=O)O)NC(=O)[C@H](CO)NC(=O)[C@H](CC(=O)O)NC(=O)[C@H](CC(C)C)NC(=O)[C@](C)(Cc1ccccc1)NC(=O)[C@H](CCCCN)NC(=O)[C@H](CO)NC(=O)[C@@H](NC(=O)[C@H](CC(=O)O)NC(=O)[C@H](CO)NC(=O)[C@@H](NC(=O)[C@H](Cc1ccccc1)NC(=O)[C@@H](NC(=O)CNC(=O)[C@H](CCC(N)=O)NC(=O)C(C)(C)NC(=O)[C@@H](N)Cc1c[nH]cn1)[C@@H](C)O)[C@@H](C)O)C(C)C)C(C)C)C(=O)N[C@H](C(=O)N[C@@H](C)C(=O)N[C@H](C(=O)O)[C@@H](C)O)C(C)C
B4: Peptide 40 (peptide)
peptide: H[Aib]QGTFTSDVSK[αMeF]LDSK([AEEA-AEEA-γGlu-C18 diacid])RAQDFVQWLL[Aib]T-OH
modifications: N-terminus assumed
SMILES: CC(C)C[C@H](NC(=O)[C@H](Cc1c[nH]c2ccccc12)NC(=O)[C@H](CCC(N)=O)NC(=O)[C@@H](NC(=O)[C@H](Cc1ccccc1)NC(=O)[C@H](CC(=O)O)NC(=O)[C@H](CCC(N)=O)NC(=O)[C@H](C)NC(=O)[C@H](CCCNC(=N)N)NC(=O)[C@H](CCCCNC(=O)COCCOCCNC(=O)COCCOCCNC(=O)CC[C@H](NC(=O)CCCCCCCCCCCCCCCCC(=O)O)C(=O)O)NC(=O)[C@H](CO)NC(=O)[C@H](CC(=O)O)NC(=O)[C@H](CC(C)C)NC(=O)[C@](C)(Cc1ccccc1)NC(=O)[C@H](CCCCN)NC(=O)[C@H](CO)NC(=O)[C@@H](NC(=O)[C@H](CC(=O)O)NC(=O)[C@H](CO)NC(=O)[C@@H](NC(=O)[C@H](Cc1ccccc1)NC(=O)[C@@H](NC(=O)CNC(=O)[C@H](CCC(N)=O)NC(=O)C(C)(C)NC(=O)[C@@H](N)Cc1c[nH]cn1)[C@@H](C)O)[C@@H](C)O)C(C)C)C(C)C)C(=O)N[C@@H](CC(C)C)C(=O)NC(C)(C)C(=O)N[C@H](C(=O)O)[C@@H](C)O
B5: Peptide 24 (peptide)
peptide: H[Aib]HGS[αMeF]TSDVSK[αMeF]LDSK([AEEA-AEEA-γGlu-C18 diacid])AAQD[αMeF]VQ[Aib]IANT-NH2
modifications: N-terminus assumed
SMILES: CC[C@H](C)[C@H](NC(=O)C(C)(C)NC(=O)[C@H](CCC(N)=O)NC(=O)[C@@H](NC(=O)[C@](C)(Cc1ccccc1)NC(=O)[C@H](CC(=O)O)NC(=O)[C@H](CCC(N)=O)NC(=O)[C@H](C)NC(=O)[C@H](C)NC(=O)[C@H](CCCCNC(=O)COCCOCCNC(=O)COCCOCCNC(=O)CC[C@H](NC(=O)CCCCCCCCCCCCCCCCC(=O)O)C(=O)O)NC(=O)[C@H](CO)NC(=O)[C@H](CC(=O)O)NC(=O)[C@H](CC(C)C)NC(=O)[C@](C)(Cc1ccccc1)NC(=O)[C@H](CCCCN)NC(=O)[C@H](CO)NC(=O)[C@@H](NC(=O)[C@H](CC(=O)O)NC(=O)[C@H](CO)NC(=O)[C@@H](NC(=O)[C@](C)(Cc1ccccc1)NC(=O)[C@H](CO)NC(=O)CNC(=O)[C@H](Cc1c[nH]cn1)NC(=O)C(C)(C)NC(=O)[C@@H](N)Cc1c[nH]cn1)[C@@H](C)O)C(C)C)C(C)C)C(=O)N[C@@H](C)C(=O)N[C@@H](CC(N)=O)C(=O)N[C@H](C(N)=O)[C@@H](C)O
B6: Peptide 22 (peptide)
peptide: H[Aib]HGS[αMeF]TSDVSK[αMeF]LDSK([AEEA-AEEA-γGlu-γGlu-C20 diacid])AAQD[αMeF]VESIANT-NH2
modifications: N-terminus assumed
SMILES: CC[C@H](C)[C@H](NC(=O)[C@H](CO)NC(=O)[C@H](CCC(=O)O)NC(=O)[C@@H](NC(=O)[C@](C)(Cc1ccccc1)NC(=O)[C@H](CC(=O)O)NC(=O)[C@H](CCC(N)=O)NC(=O)[C@H](C)NC(=O)[C@H](C)NC(=O)[C@H](CCCCNC(=O)COCCOCCNC(=O)COCCOCCNC(=O)CC[C@H](NC(=O)CC[C@H](NC(=O)CCCCCCCCCCCCCCCCCCC(=O)O)C(=O)O)C(=O)O)NC(=O)[C@H](CO)NC(=O)[C@H](CC(=O)O)NC(=O)[C@H](CC(C)C)NC(=O)[C@](C)(Cc1ccccc1)NC(=O)[C@H](CCCCN)NC(=O)[C@H](CO)NC(=O)[C@@H](NC(=O)[C@H](CC(=O)O)NC(=O)[C@H](CO)NC(=O)[C@@H](NC(=O)[C@](C)(Cc1ccccc1)NC(=O)[C@H](CO)NC(=O)CNC(=O)[C@H](Cc1c[nH]cn1)NC(=O)C(C)(C)NC(=O)[C@@H](N)Cc1c[nH]cn1)[C@@H](C)O)C(C)C)C(C)C)C(=O)N[C@@H](C)C(=O)N[C@@H](CC(N)=O)C(=O)N[C@H](C(N)=O)[C@@H](C)O
B7: Peptide 23 (peptide)
peptide: H[Aib]HGS[αMeF]TSDVSK[αMeF]LDSK([AEEA-AEEA-γGlu-C18 diacid])AAQD[αMeF]VESIANT-NH2
modifications: N-terminus assumed
SMILES: CC[C@H](C)[C@H](NC(=O)[C@H](CO)NC(=O)[C@H](CCC(=O)O)NC(=O)[C@@H](NC(=O)[C@](C)(Cc1ccccc1)NC(=O)[C@H](CC(=O)O)NC(=O)[C@H](CCC(N)=O)NC(=O)[C@H](C)NC(=O)[C@H](C)NC(=O)[C@H](CCCCNC(=O)COCCOCCNC(=O)COCCOCCNC(=O)CC[C@H](NC(=O)CCCCCCCCCCCCCCCCC(=O)O)C(=O)O)NC(=O)[C@H](CO)NC(=O)[C@H](CC(=O)O)NC(=O)[C@H](CC(C)C)NC(=O)[C@](C)(Cc1ccccc1)NC(=O)[C@H](CCCCN)NC(=O)[C@H](CO)NC(=O)[C@@H](NC(=O)[C@H](CC(=O)O)NC(=O)[C@H](CO)NC(=O)[C@@H](NC(=O)[C@](C)(Cc1ccccc1)NC(=O)[C@H](CO)NC(=O)CNC(=O)[C@H](Cc1c[nH]cn1)NC(=O)C(C)(C)NC(=O)[C@@H](N)Cc1c[nH]cn1)[C@@H](C)O)C(C)C)C(C)C)C(=O)N[C@@H](C)C(=O)N[C@@H](CC(N)=O)C(=O)N[C@H](C(N)=O)[C@@H](C)O

Assays:
human glucagon receptor = human glucagon receptor (human, UniProt P47871); experiment: cell-based or functional assay
human GLP-1 receptor = human GLP-1 receptor (human, UniProt P43220); experiment: cell-based or functional assay

Binder | cAMP production, hGluc-R EC50 (pM) (human glucagon receptor) | cAMP production, hGLP-1R EC50 (pM) (human GLP-1 receptor)
B1 | 4190 | 1280
B2 | 629 | 107
B3 | 8190 | 665
H[Aib]HGS[αMeF]TSDVSK[αMeF]LDSK([AEEA-AEEA-γGlu-γGlu-C20 diacid])AAQD[αMeF]VQ[Aib]IANT-NH2 [Peptide 25] | 1310 | 726
B4 | 123 | 29.9
B5 | 101 | 82.8
B6 | 2720 | 1230
B7 | 321 | 266
